In article PMC5173035:

Experiments:
[1] = molecular target: M1.HpyAVI, DNA N6-adenine methyltransferase from Helicobacter pylori 26695 (Helicobacter pylori 26695); test: SEC; Superdex 75 10/300 column on FPLC, 0.05, 0.1, 0.2, 0.5 mg/ml protein loaded; calibrated with gel filtration calibration kit LMW
[2] = molecular target: M1.HpyAVI, DNA N6-adenine methyltransferase from Helicobacter pylori 26695 (Helicobacter pylori 26695); test: crystal structure; cofactor-free (3.0 Å, four monomers in the asymmetric unit) and AdoMet-bound (3.1 Å, eight monomers) crystals; dimer with the two monomers related by a two-fold axis; interface analysed with PDBePISA

stoichiometry N [1]: 2 | stoichiometry N [2]: 2
Substance: M1.HpyAVI, DNA N6-adenine methyltransferase from Helicobacter pylori 26695 (enzyme)
